For this data set, the system named is RcnR (Salmonella enterica serovar Typhimurium SL1344 (100% sequence identity to E. coli RcnR)). As to the kind of experiment: fluorescence anisotropy. Particulars: Ni(II), 1:1 NiII:RcnR tetramer; 10 nM DNA, 60 mM NaCl, 240 mM KCl, 10 mM HEPES pH 7.5, 25 C, anaerobic, Chelex-treated N2-purged buffers; apo-RcnR Kd 1.5e-7 M is from earlier work (ref 39). (Polarisation of emitted light reports the rotation of a fluorescent probe.)

Experimental findings from PMC11742986 are described below.

As to rcnRA operator-promoter, the Kd worked out at 3.09 µM. This counts as single-digit micromolar.

Usually Kd stands for the concentration at which binding is half-saturated.
